The record followed here is publication PMC12803839.

The target in this assay is pyruvate kinase M2 (human (endogenous in HK-2)) (UniProt P14618). In words: cross-linking; proteins of HK-2 cells treated with vehicle or compound 3k; DSS 1 mM, room temperature, 30 min, quenched with 20 mM Tris; SDS-PAGE and Western blot for PKM2; more monomer and less dimer and tetramer with compound 3k. For orientation: In western blotting, separated proteins are transferred to a membrane and probed.

Sequence of pyruvate kinase M2, P14618 1-531 (natural protein; other documents disagree on this pair) (P14618 whole entry): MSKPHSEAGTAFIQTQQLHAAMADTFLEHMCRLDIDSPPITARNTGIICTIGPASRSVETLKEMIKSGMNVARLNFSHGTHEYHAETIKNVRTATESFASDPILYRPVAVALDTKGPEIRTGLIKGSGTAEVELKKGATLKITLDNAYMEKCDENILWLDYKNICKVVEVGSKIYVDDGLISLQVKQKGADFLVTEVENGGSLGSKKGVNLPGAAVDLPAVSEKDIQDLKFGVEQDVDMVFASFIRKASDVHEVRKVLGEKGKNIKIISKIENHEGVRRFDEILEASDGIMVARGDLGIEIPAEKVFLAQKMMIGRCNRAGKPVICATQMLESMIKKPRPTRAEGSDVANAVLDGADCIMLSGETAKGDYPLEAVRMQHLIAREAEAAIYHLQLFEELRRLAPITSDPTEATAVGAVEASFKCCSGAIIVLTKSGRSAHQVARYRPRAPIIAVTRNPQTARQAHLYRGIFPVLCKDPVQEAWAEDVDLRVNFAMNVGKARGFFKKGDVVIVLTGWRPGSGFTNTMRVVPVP

As usually defined, the stoichiometry N is the number of molecules, sites or subunits per partner or assembly. On to “pyruvate kinase M2, P14618 1-531 (natural protein; other documents disagree on this pair)”, for which the stoichiometry N was 2.
